Target: HA-tagged Patched 1 (Ptc1), expressed in 293T cells (UniProt Q61115)
Test: pull-down

Chain of UniProt Q61115 (Q61115 whole entry): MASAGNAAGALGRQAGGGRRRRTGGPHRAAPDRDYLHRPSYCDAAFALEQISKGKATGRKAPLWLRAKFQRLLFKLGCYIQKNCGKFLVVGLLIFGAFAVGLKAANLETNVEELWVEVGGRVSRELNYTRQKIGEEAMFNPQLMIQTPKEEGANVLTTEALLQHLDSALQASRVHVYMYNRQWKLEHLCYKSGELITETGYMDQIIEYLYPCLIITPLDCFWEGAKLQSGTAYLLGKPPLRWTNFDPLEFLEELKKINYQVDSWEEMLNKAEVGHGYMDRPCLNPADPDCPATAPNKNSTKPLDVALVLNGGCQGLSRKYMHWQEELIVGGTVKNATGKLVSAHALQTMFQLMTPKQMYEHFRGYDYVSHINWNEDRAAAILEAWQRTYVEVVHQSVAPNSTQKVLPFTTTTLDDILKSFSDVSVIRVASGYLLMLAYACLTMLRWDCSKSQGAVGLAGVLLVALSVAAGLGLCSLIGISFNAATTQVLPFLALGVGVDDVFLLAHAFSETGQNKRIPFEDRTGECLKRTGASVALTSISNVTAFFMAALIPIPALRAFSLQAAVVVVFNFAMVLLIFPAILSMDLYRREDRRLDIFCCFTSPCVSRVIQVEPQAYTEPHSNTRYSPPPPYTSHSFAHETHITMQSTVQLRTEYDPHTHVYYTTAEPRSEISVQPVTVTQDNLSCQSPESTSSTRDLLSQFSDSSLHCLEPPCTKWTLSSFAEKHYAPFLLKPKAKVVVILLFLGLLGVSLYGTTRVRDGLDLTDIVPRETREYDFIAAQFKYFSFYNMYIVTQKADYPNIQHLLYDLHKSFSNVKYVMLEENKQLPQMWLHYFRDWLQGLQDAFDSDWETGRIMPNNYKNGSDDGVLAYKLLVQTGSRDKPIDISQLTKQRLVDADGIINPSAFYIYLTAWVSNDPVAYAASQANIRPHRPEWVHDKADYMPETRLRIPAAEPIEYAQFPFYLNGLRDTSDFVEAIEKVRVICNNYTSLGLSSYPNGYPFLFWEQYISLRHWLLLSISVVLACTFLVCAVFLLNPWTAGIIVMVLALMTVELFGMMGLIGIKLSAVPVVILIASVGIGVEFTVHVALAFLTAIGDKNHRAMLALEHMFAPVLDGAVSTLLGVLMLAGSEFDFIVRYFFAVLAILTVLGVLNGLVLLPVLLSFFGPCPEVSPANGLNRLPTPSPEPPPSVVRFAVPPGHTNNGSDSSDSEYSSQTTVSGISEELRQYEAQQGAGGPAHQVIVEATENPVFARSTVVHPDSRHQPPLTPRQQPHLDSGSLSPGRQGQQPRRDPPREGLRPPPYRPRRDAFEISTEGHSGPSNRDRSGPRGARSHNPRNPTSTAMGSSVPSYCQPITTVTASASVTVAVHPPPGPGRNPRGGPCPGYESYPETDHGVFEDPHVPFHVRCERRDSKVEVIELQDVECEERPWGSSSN

## GPC5-AP fusion protein in conditioned medium
  Kd: 37 nM
